The record followed here is patent US20050036993A1, “Immune activation by double-stranded polynucleotides” (priority 1998, published 2005).

The experiment deals with Stat 1 (Tyr 701), Stat 3 (Tyr 705). Briefly: Western blot of phosphorylated Stat 1, Stat 3 and total Stat 1 in FRTL-5 cells. It is filed as cell-based, rat. The method, then:
SDS-polyacrylamide gel electrophoresis and Western blotting—Transfected FRTL-5 cells or FRTL-5 cells treated with KIFN (100 U/ml protein) which had been grown in 100 mm dishes (Nalge Nunc International), were placed on ice before harvesting, washed with ice-cold Dulbecco's PBS (DPBS), released by gentle scraping with a rubber policeman, and collected by low-speed centrifugation at 833×g for 10 min in a Sorvall table-top centrifuge (rotor H-1000, Dupont Company, Wilmington Del.). After a second washing in DPBS, cells were resuspended in cold lysis buffer [50 mM HEPES pH 7.0,2 mM MgCl2; 250 mM NaCl; 0.1 mM EDTA; 0.1 mM EGTA; 1 mM DTT; 2 mM Na3VO4; 10 mM Na4P2O7; 10 mM NaF; 0.1% NP-40; 0.5 mM p-amidinophenyl methanesulfonyl fluoride hydrochloride (p-APMSF) plus a protease inhibitor cocktail ([…]; 2.5 mg/ml of antipain; 2.5 mg/ml of chymostatin; 0.25 mg/ml leupeptin; 0.25 mg/ml antipain]. The cells were allowed to lyse on ice for 60 min, after which they were vortexed vigorously and centrifuged at 4° C. and at 12,000 rpm in a microcentrifuge for 10 min. The supernatant was collected and frozen in aliquots at −70° C. […] The membrane was again washed and protein detected by incubation for 1 min with ECL detection reagent (Amersham, Arlington Heights, Ill.) followed by exposure to X-ray film. […]
For orientation: In western blotting, separated proteins are transferred to a membrane and probed.

B1: KIFN: K-interferon (gamma interferon, character lost), rat recombinant, 100 U/ml (protein, UniProt P01581 23-156, looked up)
Interferon gamma: QGTLIESLESLKNYFNSSSMDAMEGKSLLLDIWRNWQKDGNTKILESQIISFYLRLFEVLKDNQAISNNISVIESHLITNFFSNSKAKKDAFMSIAKFEVNNPQIQHKAVNELIRVIHQLSPESSLRKRKRSRC
With B1, the “phosphorylation of STAT 1 and STAT 3” value (FRTL-5 cells, dsDNA within 6 hours of transfection) is “significantly lower and more delayed in time”. Also, under “readily measurable at 12 hours”, the “total STAT 1 protein” value was “greater and more advanced in time”.
